The values below come from paper PMC4431670 (Structure(London, England:1993), 2015).

Experiment [1] addresses T1, C-terminal domain of Not1 (Not1C), residues 1541-2093 (S. cerevisiae, UniProt P25655 1541-2093).
T1 sequence (looked up): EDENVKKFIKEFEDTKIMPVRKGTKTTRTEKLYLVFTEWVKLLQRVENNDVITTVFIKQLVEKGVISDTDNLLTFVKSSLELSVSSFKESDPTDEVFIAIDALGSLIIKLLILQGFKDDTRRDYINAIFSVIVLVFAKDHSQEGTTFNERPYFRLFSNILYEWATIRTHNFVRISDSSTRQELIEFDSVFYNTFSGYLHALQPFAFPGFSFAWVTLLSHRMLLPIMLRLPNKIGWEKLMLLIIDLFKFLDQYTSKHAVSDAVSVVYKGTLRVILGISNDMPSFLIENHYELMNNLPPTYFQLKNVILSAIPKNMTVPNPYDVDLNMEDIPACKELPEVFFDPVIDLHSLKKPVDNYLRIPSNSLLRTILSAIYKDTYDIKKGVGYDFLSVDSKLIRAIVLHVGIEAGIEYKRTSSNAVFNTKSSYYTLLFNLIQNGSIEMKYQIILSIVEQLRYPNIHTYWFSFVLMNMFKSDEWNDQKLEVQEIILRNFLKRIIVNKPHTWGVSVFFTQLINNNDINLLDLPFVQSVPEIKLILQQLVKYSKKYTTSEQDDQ
Put plainly: pull-down.

Experiment [2] addresses T1, C-terminal domain of Not1 (Not1C), …. The experiment is described as follows: crystal structure.

B1: GST-tagged Not4C (domain or fragment, S. cerevisiae, UniProt P34909 418-477, looked up)
chain: DPYDALGNAVDFLDARLHSLSNYQKRPISIKSNIIDEETYKKYPSLFSWDKIEASKKSDN
As to B1, the binding result in experiment [1] was “binds”.

B2: Not4C, residues 418-477 of Not4 (domain or fragment, S. cerevisiae, UniProt P34909 418-477, looked up)
chain: B1 chain
As to B2, the binding result in experiment [2] is listed as “binds”.
